# Laboratory results from paper doi:10.1101/2020.11.24.396648.
# Columns and labels:
# Experiment in all cases: cryo-EM structure
# [1] = target: E. faecalis 70S ribosome (Enterococcus faecalis (endogenous in TX5332))
# [2] = target: L. monocytogenes 70S ribosome (Listeria monocytogenes (endogenous in EDG-e)) (UniProt B8DAY5)
# [3] = target: S. aureus 70S ribosome (Staphylococcus aureus (endogenous in SH1000)) (UniProt P48940)
# Sequence of UniProt P48940 (P48940 whole entry, looked up): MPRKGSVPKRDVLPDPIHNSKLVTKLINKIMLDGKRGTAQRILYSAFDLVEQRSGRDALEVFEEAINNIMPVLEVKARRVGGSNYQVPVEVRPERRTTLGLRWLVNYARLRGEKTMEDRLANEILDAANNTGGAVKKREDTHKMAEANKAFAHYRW
substance,measurement,setting,value
"E. faecalis LsaA-EQ2-HTF (ATPase-deficient E142Q/E452Q, C-terminal His6-TEV-FLAG3 tag) (natural protein)",occupancy of the factor on the ribosome (percent of picked ribosomal particles),[1],> 95%
"L. monocytogenes VgaL-EQ2-HTF (Lmo0919, ATPase-deficient E104Q/E408Q, C-terminal His6-TEV-FLAG3 tag) (natural protein)",occupancy of the factor on the ribosome (percent of picked ribosomal particles),[2],70%
"S. haemolyticus VgaALC-EQ2-FLAG3 (ATPase-deficient E105Q/E410Q, C-terminal FLAG3 tag) (natural protein)",occupancy of the factor on the ribosome (percent of picked ribosomal particles),[3],60%
